T1: RXFP1 receptor expressed by transient transfection in HEK293T cells (UniProt Q9HBX9 1-757, limits assumed)
T1 sequence (looked up): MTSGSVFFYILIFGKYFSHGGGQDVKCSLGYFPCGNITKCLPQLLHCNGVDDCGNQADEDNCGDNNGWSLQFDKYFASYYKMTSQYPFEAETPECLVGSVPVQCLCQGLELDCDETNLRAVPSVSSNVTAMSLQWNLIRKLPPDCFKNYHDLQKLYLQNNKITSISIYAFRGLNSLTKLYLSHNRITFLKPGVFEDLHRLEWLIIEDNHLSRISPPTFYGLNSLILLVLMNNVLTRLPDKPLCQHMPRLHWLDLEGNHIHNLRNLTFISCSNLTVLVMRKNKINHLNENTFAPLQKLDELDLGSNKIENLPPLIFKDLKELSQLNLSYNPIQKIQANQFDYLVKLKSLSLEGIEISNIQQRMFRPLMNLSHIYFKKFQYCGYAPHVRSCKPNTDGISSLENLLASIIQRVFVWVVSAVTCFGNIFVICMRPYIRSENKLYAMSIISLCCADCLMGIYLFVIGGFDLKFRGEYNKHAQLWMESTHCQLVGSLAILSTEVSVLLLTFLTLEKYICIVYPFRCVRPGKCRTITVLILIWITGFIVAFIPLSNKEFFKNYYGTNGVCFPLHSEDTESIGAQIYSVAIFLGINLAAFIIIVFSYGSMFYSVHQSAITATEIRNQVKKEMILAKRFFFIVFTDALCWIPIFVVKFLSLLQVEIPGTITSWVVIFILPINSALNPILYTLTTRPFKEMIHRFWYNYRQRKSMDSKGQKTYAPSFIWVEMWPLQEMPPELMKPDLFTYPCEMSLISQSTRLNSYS


Biological target: T1, RXFP1 receptor expressed by transient …
Assay: cell-based or functional assay

| Binder | EC50 | Emax (Native two-chain relaxin = 100% Emax) |
| --- | --- | --- |
| SE401, Single-chain relaxin with the combined substitutions of SE201, 204-207, fused to the C-terminus of mouse serum albumin with an N-terminal 8X His-tag (other) HHHHHHHHRGVFRREAHKSEIAHRYNDLGEQHFKGLVLIAFSQYLQKCSYDEHAKLVQEVTDFAKTCVADESAANCDKSLHTLFGDKLCAIPNLRENYGELADCCTKQEPERNECFLQHKDDNPSLPPFERPEAEAMCTSFKENPTTFMGHYLHEVARRHPYFYAPELLYYAEQYNEILTQCCAEADKESCLTPKLDGVKEKALVSSVRQRMKCSSMQKFGERAFKAWAVARLSQTFPNADFAEITKLATDLTKVNKECCHGDLLECADDRAELAKYMCENQATISSKLQTCCDKPLLKKAHCLSEVEHDTMPADLPAIAADFVEDQEVCKNYAEAKDVFLGTFLYEYSRRHPDYSVSLLLRLAKKYEATLEKCCAEANPPACYGTVLAEFQPLVEEPKNLVKTNCDLYEKLGEYGFQNAILVRYTQKAPQVSTPTLVEAARNLGRVGTKCCTLPEDQRLPCVEDYLSAILNRVCLLHEKTPVSEHVTKCCSGSLVERRPCFSALTVDETYVPKEFKAETFTFHSDICTLPEKEKQIKKQTALAELVKHKPKATAEQLKTVMDDFAQFLDTCCKAADKDTCFSTEGPNLVTRCKDALAGGSDSWKEEVIKLCGRELVRAQIAICGKSTASDAAGANANAGARQLYSALANKCCHVGCTKRSLARFC | 52.6 nM | 121% |
| SE004, Protein C-tag and His-tag single-chain relaxin (ligand) EDQVDPRLIDGKGSHHHHHHDSWMEEVIKLCGRELVRAQIAICGMSTWSDAASSHSHSSARQLYSALANKCCHVGCTKRSLARFC | 1.5 nM | 117% |

Continued, values first:

| EC50 | Emax (Native two-chain relaxin = 100% Emax) | Binder |
| --- | --- | --- |
| 0.485 nM | 112% | SE005, Truncated His-tag single-chain relaxin (ligand) HHHHHHEEVIKLCGRELVRAQIAICGMSTWSDAASSHSHSSARQLYSALANKCCHVGCTKRSLARFC |
| – | 118% | SE001, His-tag single-chain relaxin (ligand) HHHHHHDSWMEEVIKLCGRELVRAQIAICGMSTWSDAASSHSHSSARQLYSALANKCCHVGCTKRSLARFC |

Reference: patent publication US20230174610A1 (Harvard, published 2023)
